Where two headings read alike, the source gives them in different places. No end group written: not given here.
Assays:
FRET or BRET [1] = target: the molecule itself; assay: FRET or BRET
FRET or BRET [2] = target: the molecule itself; assay: FRET or BRET; remark: listed apart in the source

B1: YFP-ALN (another-regulin) (natural protein, UniProt Q8WVX3 1-66, looked up)
chain: MEVDAPGVDGRDGLRERRGFSEGGRQNFDVRPQSGANGLPKHSYWLDLWLFILFDVVVFLFVYFLP
stoichiometry N (FRET or BRET [1]): 2 | stoichiometry N (FRET or BRET [2]): > 2

B2: YFP-endoregulin (ELN) (natural protein, UniProt P0DI80 1-62, looked up)
chain: MDQLVFKETIWNDAFWQNPWDQGGLAVIILFITAVLLLILFAIVFGLLTSTENTQCEAGEEE
stoichiometry N (FRET or BRET [1]): 2 | stoichiometry N (FRET or BRET [2]): > 2

MTGKNWILISTTTPKSLEDEIVGRLLKILFVIFVDLISIIYVVITS (natural protein, UniProt P0DMT0 1-46, looked up) [YFP-myoregulin (MLN)]
stoichiometry N (FRET or BRET [1]): 2 | stoichiometry N (FRET or BRET [2]): > 2

B3: YFP-phospholamban (PLB) (natural protein, UniProt P26678 1-52, looked up)
chain: {YFP}-MEKVQYLTRSAIRRASTIEMPQQARQKLQNLFINFCLILICLLLICIIVMLL
modifications: cysteine pairing not given here
stoichiometry N (FRET or BRET [1]): 2 | stoichiometry N (FRET or BRET [2]): > 2

— PMC6885550 (Journal of molecular biology, 2019)
